Measured values as given in IntAct's records for PubMed 21078995.

B1: Nitrate/nitrite sensor protein NarX (Escherichia coli (strain K12)), P0AFA2 (parent)
chain: MLKRCLSPLTLVNQVALIVLLSTAIGLAGMAVSGWLVQGVQGSAHAINKAGSLRMQSYRLLAAVPLSEKDKPLIKEMEQTAFSAELTRAAERDGQLAQLQGLQDYWRNELIPALMRAQNRETVSADVSQFVAGLDQLVSGFDRTTEMRIETVVLVHRVMAVFMALLLVFTIIWLRARLLQPWRQLLAMASAVSHRDFTQRANISGRNEMAMLGTALNNMSAELAESYAVLEQRVQEKTAGLEHKNQILSFLWQANRRLHSRAPLCERLSPVLNGLQNLTLLRDIELRVYDTDDEENHQEFTCQPDMTCDDKGCQLCPRGVLPVGDRGTTLKWRLADSHTQYGILLATLPQGRHLSHDQQQLVDTLVEQLTATLALDRHQERQQQLIVMEERATIARELHDSIAQSLSCMKMQVSCLQMQGDALPESSRELLSQIRNELNASWAQLRELLTTFRLQLTEPGLRPALEASCEEYSAKFGFPVKLDYQLPPRLVPSHQAIHLLQIAREALSNALKHSQASEVVVTVAQNDNQVKLTVQDNGCGVPENAIRSNHYGMIIMRDRAQSLRGDCRVRRRESGGTEVVVTFIPEKTFTDVQGDTHE

Variants of: B1
Conditions: with narl_ecoli narL

Variant | effect of a mutation on the interaction
MLKRCLSPLTLVNQVALIVLLSTAIGLAGMAVSGWLVQGVQGSAHAINKAGSLRMQSYRLLAAVPLSEKDKPLIKEMEQTAFSAELTRAAERDGQLAQLQGLQDYWRNELIPALMRAQNRETVSADVSQFVAGLDQLVSGFDRTTEMRIETVVLVHRVMAVFMALLLVFTIIWLRARLLQPWRQLLAMASAVSHRDFTQRANISGRNEMAMLGTALNNMSAELAESYAVLEQRVQEKTAGLEHKNQILSFLWQANRRLHSRAPLCERLSPVLNGLQNLTLLRDIELRVYDTDDEENHQEFTCQPDMTCDDKGCQLCPRGVLPVGDRGTTLKWRLADSHTQYGILLATLPQGRHLSHDQQQLVDTLVEQLTATLALDRHQERQQQLIVMEERATIARELQDSIAHSLSCMKMQVSCLQMQGDALPESSRELLSQIRNELNASWAQLRELLTTFRLQLTEPGLRPALEASCEEYSAKFGFPVKLDYQLPPRLVPSHQAIHLLQIAREALSNALKHSQASEVVVTVAQNDNQVKLTVQDNGCGVPENAIRSNHYGMIIMRDRAQSLRGDCRVRRRESGGTEVVVTFIPEKTFTDVQGDTHE [H399Q;Q404H] | disrupting interaction
MLKRCLSPLTLVNQVALIVLLSTAIGLAGMAVSGWLVQGVQGSAHAINKAGSLRMQSYRLLAAVPLSEKDKPLIKEMEQTAFSAELTRAAERDGQLAQLQGLQDYWRNELIPALMRAQNRETVSADVSQFVAGLDQLVSGFDRTTEMRIETVVLVHRVMAVFMALLLVFTIIWLRARLLQPWRQLLAMASAVSHRDFTQRANISGRNEMAMLGTALNNMSAELAESYAVLEQRVQEKTAGLEHKNQILSFLWQANRRLHSRAPLCERLSPVLNGLQNLTLLRDIELRVYDTDDEENHQEFTCQPDMTCDDKGCQLCPRGVLPVGDRGTTLKWRLADSHTQYGILLATLPQGRHLSHDQQQLVDTLVEQLTATLALDRHQERQQQLIVMEERATIARELQDSIAASLSCMKMQVSCLQMQGDALPESSRELLSQIRNELNASWAQLRELLTTFRLQLTEPGLRPALEASCEEYSAKFGFPVKLDYQLPPRLVPSHQAIHLLQIAREALSNALKHSQASEVVVTVAQNDNQVKLTVQDNGCGVPENAIRSNHYGMIIMRDRAQSLRGDCRVRRRESGGTEVVVTFIPEKTFTDVQGDTHE [H399Q;Q404A] | disrupting interaction
MLKRCLSPLTLVNQVALIVLLSTAIGLAGMAVSGWLVQGVQGSAHAINKAGSLRMQSYRLLAAVPLSEKDKPLIKEMEQTAFSAELTRAAERDGQLAQLQGLQDYWRNELIPALMRAQNRETVSADVSQFVAGLDQLVSGFDRTTEMRIETVVLVHRVMAVFMALLLVFTIIWLRARLLQPWRQLLAMASAVSHRDFTQRANISGRNEMAMLGTALNNMSAELAESYAVLEQRVQEKTAGLEHKNQILSFLWQANRRLHSRAPLCERLSPVLNGLQNLTLLRDIELRVYDTDDEENHQEFTCQPDMTCDDKGCQLCPRGVLPVGDRGTTLKWRLADSHTQYGILLATLPQGRHLSHDQQQLVDTLVEQLTATLALDRHQERQQQLIVMEERATIARELQASIAQSLSCMKMQVSCLQMQGDALPESSRELLSQIRNELNASWAQLRELLTTFRLQLTEPGLRPALEASCEEYSAKFGFPVKLDYQLPPRLVPSHQAIHLLQIAREALSNALKHSQASEVVVTVAQNDNQVKLTVQDNGCGVPENAIRSNHYGMIIMRDRAQSLRGDCRVRRRESGGTEVVVTFIPEKTFTDVQGDTHE [H399Q;D400A] | decreasing interaction
MLKRCLSPLTLVNQVALIVLLSTAIGLAGMAVSGWLVQGVQGSAHAINKAGSLRMQSYRLLAAVPLSEKDKPLIKEMEQTAFSAELTRAAERDGQLAQLQGLQDYWRNELIPALMRAQNRETVSADVSQFVAGLDQLVSGFDRTTEMRIETVVLVHRVMAVFMALLLVFTIIWLRARLLQPWRQLLAMASAVSHRDFTQRANISGRNEMAMLGTALNNMSAELAESYAVLEQRVQEKTAGLEHKNQILSFLWQANRRLHSRAPLCERLSPVLNGLQNLTLLRDIELRVYDTDDEENHQEFTCQPDMTCDDKGCQLCPRGVLPVGDRGTTLKWRLADSHTQYGILLATLPQGRHLSHDQQQLVDTLVEQLTATLALDRHQERQQQLIVMEERATIARELQDSIAQSLSCMKMQVSCLQMQGDALPESSRELLSQIRNELNASWAQLRELLTTFRLQLTEPGLRPALEASCEEYSAKFGFPVKLDYQLPPRLVPSHQAIHLLQIAREALSNALKHSQASEVVVTVAQNDNQVKLTVQDNGCGVPENAIRSNHYGMIIMRDRAQSLRGDCRVRRRESGGTEVVVTFIPEKTFTDVQGDTHE [H399Q] | decreasing interaction
